B1: Hairpin Ribozyme (parent)
chain: GUCCUCUUUCACGUGCGCGUGAAAGAGAGAAGUGAACCAGAGAAACACACGUUGUGGUAUAUUACCUGGUA

Variants of: B1
Assay: self-cleavage, relative activity (ratio to wild type); higher = more cleavage; co-transcriptional

Variant	self-cleavage
GUCCUCUUUCACGUGCGCGUGAAAGAGAGAAGUGAACCAGAGAAACUCACGUUGUGGUAUAUUACCUCGUA	0.26
GUCCUCUUUCAGGUGCGCGUGAAAGAGAGAAGUGAACCAGAAAAACACACGUUGUGGUAUAUUACCUGGUA	0.276
GUCCUCUUUCACGUGCGCGUGAAAGAGAGAAGUAAACCAGAGAAACACACGUUGUGGUAUAUUACCUGGAA	1.14
GUCCUCAUUCACGUGCGCGUGAAAGAGAGAAGUGAACCAGAGAAACACACUUUGUGGUAUAUUACCUGGUA	0.866
GUCCUCUUUCACGUGCGCGUGAAAGAGAGAAGUGUACCAGAGAAACACACGUUGUGGUAUAUGACCUGGUA	0.147
GUCCUCUUUCACGUGCGCGUGAAAGAGUGGAGUGAACCAGAGAAACACACGUUGUGGUAUAUUACCUGGUA	0.0577
GUCCUCUUUCACGUGCGCGUGAAAGAGAGAAGUGAACCAGAGAAACACACGAUGUGGCAUAUUACCUGGUA	0.881
GUCCUCUUUCACGUGCGCGUGAAAGAGAGAAGUGAACCAGAGAAACUCACGUUGUGGUAUUUUACCUGGUA	0.211
GUCCUCUUUCACGUGCACGUGAAAGAGAGAAGUGAACCAGAGAAACACACGUUGUGGUAUAUUACCUGGUU	0.868
GUCCUCUUUCACGUGCGCGUGAAAGAGAGAAGUGAACCAGAGAAACAGACGUUGUGGUAUAUUAGCUGGUA	0.149
GUCCUCUUUCACGUGCGCAUGAAAGAGAGAAGUGUACCAGAGAAACACACGUUGUGGUAUAUUACCUGGUA	0.607
GUCCUCUUUCACGUGCGCGGGAAAGAGAGAAGUGAACCAGAGAAACACACGUUGUGGUACAUUACCUGGUA	0.815
GUCCUCUUUCACGUGCGCGUGGAAGAGAGAAGUGAACCAGAGAAACACACGUUGUGGUAUAAUACCUGGUA	0.189
GUCCUCUUUCACGUGCGCCUGAAAGAGAGAAGUGAACCAGAGAAACACACGUUGUGGUAUGUUACCUGGUA	0.144
GUCCUCUUUCACGUGCGCGUGAAAGAGAGAAGUGAACCAGAGAAACACACGUUGUGAUAUAUUACAUGGUA	0.215
GUCCUCUUUCACGUGCGCGUGUAAGAGAGAAGUGAACCAGAGAAACACACGUUGUGGUGUAUUACCUGGUA	0.117
GUCCUCUUUCACGUGCGCGUGAAAGAGAGAAGUGAACCAGAGAAACACACGUUGUGGUGUGUUACCUGGUA	0.082
GUCCUCUUUCACGUGCGCGUGAAAGAGAGAAGUGAACCAGCGAAACACACGUUGUGGUUUAUUACCUGGUA	0.173
GUCCUCUUUCAUGUGCGCGUGAAAGAGAGAAGAGAACCAGAGAAACACACGUUGUGGUAUAUUACCUGGUA	0.205

Variant	self-cleavage
AUCCUCUUUCACGUGCGGGUGAAAGAGAGAAGUGAACCAGAGAAACACACGUUGUGGUAUAUUACCUGGUA	0.0949
GUCCUCUUUCACGUGUGCGUGAAAGAGAGAAUUGAACCAGAGAAACACACGUUGUGGUAUAUUACCUGGUA	0.134
GUCCUCUUUCACGUGCGCGUGAAAGAGCGAAGUGAACCGGAGAAACACACGUUGUGGUAUAUUACCUGGUA	0.171
GUCCUCUUUCACGUGCGCGUGAAAGAGAGAAGUGAACCAGAGAAACCCACGUUGUGGUAUAUUACCUGGAA	0.264
GUCCUCUUUCACGUGCGCGUGAAAGAGAGAAGUGAACCAGAGAAACACACGUUAUGGUAUAUUACCUGGUA	0.583
GUCCUCUUUCACGUGCGCGUGAAAGAGAAAAGUGAACCAGAGAAACACACGUUGUGGUGUAUUACCUGGUA	0.162
GUCCUCUUUCACGUGCGCGUGAAACAGAGAAGUGAACCAGAGAAACACACGUUGUGGUAUAAUACCUGGUA	0.188
UUCCUCUUUCACGUGCGCGUGAAAGAGAGAAGUGAACCAGAGAAACACACGUUGUGGUAUAUUACAUGGUA	0.242
GUCCUCUUUCACGUGCGAGUGAAAGAGAGAAGUGUACCAGAGAAACACACGUUGUGGUAUAUUACCUGGUA	0.734
GUCCUCUUUCACGUGCGCGUGAGAGAGAGAACUGAACCAGAGAAACACACGUUGUGGUAUAUUACCUGGUA	0.163
GUCCUCUUUCCCGUGCGCGUGAAAGAGAGAAGUGAACCAGAGAAACACACGGUGUGGUAUAUUACCUGGUA	0.857
GUCCUCUUUCACGUGCGCGUGAAAGAGAGAUGUGAACCAGAGAAACACACGUUGUGGUAUGUUACCUGGUA	0.159
GUCCUCUUUAACGUGCGGGUGAAAGAGAGAAGUGAACCAGAGAAACACACGUUGUGGUAUAUUACCUGGUA	0.791
GUCCUCUUUCACGUGCGCGUGAAAGAGAGAAGUUAACCAGAGAAACACACGUUGUGGCAUAUUACCUGGUA	1.53
GUCCUCUUUCGCGUGCGCGUGAAAGAGAGAAGUGAACCAGACAAACACACGUUGUGGUAUAUUACCUGGUA	0.322
GUCCUCUUUCACGUGCCCGUGAAAGAGAGAACUGAACCAGAGAAACACACGUUGUGGUAUAUUACCUGGUA	0.183
GUCCUCUUUCACGUGCGCGUGAAAGAGAGAAGUGAACCAGAGAAACACACAUUGUGGUAUAUUACAUGGUA	0.344
GUCCUCUUUCACGUGCGCGUGACAGAGAGAAGUGAACCAGAGAAACACACGUUGUGGUAUAUUACCAGGUA	0.211
GGCCUCUUUCACGUGCGCGUGAAAGAGAGAAGUGAACCAGAGAAACACACGUUGCGGUAUAUUACCUGGUA	0.168

— the RNAGym collection of RNA variant scans (doi:10.7554/elife.80360)
